Data from patent US20220348617A1 (published 2022).

T1: Notch 3 EGF domains 5-12 (human, UniProt Q9UM47 197-505)
T1 chain: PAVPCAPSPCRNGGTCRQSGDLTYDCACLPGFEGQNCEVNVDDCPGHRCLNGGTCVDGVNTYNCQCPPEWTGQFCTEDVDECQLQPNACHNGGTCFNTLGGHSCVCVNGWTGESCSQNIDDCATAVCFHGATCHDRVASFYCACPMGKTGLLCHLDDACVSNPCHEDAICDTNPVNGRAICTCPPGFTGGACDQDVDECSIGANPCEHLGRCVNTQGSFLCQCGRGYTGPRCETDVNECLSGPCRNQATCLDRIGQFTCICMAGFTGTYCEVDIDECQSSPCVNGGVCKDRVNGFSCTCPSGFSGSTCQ

T2: Notch2 EGF domains 6-13 (human, UniProt Q04721 221-530)
T2 chain: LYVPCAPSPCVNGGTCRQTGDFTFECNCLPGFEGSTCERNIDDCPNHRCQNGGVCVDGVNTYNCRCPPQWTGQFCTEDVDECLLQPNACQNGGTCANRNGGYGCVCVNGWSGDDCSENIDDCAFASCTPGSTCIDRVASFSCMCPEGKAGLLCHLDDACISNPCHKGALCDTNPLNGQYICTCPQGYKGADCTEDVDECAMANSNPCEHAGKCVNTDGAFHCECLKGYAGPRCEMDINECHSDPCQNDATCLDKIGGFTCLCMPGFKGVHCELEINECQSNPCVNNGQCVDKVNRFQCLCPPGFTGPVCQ

T3: Notch1 EGF domains 6-13 (human, UniProt P46531 218-526)
T3 chain: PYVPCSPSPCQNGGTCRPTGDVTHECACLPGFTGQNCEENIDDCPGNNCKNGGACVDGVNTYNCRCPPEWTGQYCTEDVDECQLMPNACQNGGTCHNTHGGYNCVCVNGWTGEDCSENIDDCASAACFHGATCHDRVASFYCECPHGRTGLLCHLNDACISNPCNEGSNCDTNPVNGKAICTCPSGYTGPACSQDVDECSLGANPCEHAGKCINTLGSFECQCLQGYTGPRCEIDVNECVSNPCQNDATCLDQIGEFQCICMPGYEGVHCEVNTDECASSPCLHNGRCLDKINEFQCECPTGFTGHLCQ


What was measured:
DLL4.v3 = experiment: SPR; N-EGF3
hDLL4 site2 = experiment: SPR; N-EGF3
Notch 3 EGF domains 5-12 [1] = molecular target: T1, Notch 3 EGF domains 5-12; experiment: SPR; N-EGF3
Notch2 EGF domains 6-13 [2] = molecular target: T2, Notch2 EGF domains 6-13; experiment: SPR; N-EGF3
Notch1 EGF domains 6-13 [3] = molecular target: T3, Notch1 EGF domains 6-13; experiment: SPR; N-EGF3
Notch 3 EGF domains 5-12 [4] = molecular target: T1, Notch 3 EGF domains 5-12; experiment: SPR
Notch2 EGF domains 6-13 [5] = molecular target: T2, Notch2 EGF domains 6-13; experiment: SPR
Notch1 EGF domains 6-13 [6] = molecular target: T3, Notch1 EGF domains 6-13; experiment: SPR

Binder | Kd (DLL4.v3) [µM] | Kd (hDLL4 site2) [µM] | Kd (Notch 3 EGF domains 5-12 [1]) [µM] | Kd (Notch2 EGF domains 6-13 [2]) [µM] | Kd (Notch1 EGF domains 6-13 [3]) [µM] | Kd (Notch 3 EGF domains 5-12 [4]) [µM] | Kd (Notch2 EGF domains 6-13 [5]) [µM] | Kd (Notch1 EGF domains 6-13 [6]) [µM]
hNotch1 (EGF6-13) (receptor) PYVPCSPSPCQNGGTCRPTGDVTHECACLPGFTGQNCEENIDDCPGNNCKNGGACVDGVNTYNCRCPPEWTGQYCTEDVDECQLMPNACQNGGTCHNTHGGYNCVCVNGWTGEDCSENIDDCASAACFHGATCHDRVASFYCECPHGRTGLLCHLNDACISNPCNEGSNCDTNPVNGKAICTCPSGYTGPACSQDVDECSLGANPCEHAGKCINTLGSFECQCLQGYTGPRCEIDVNECVSNPCQNDATCLDQIGEFQCICMPGYEGVHCEVNTDECASSPCLHNGRCLDKINEFQCECPTGFTGHLCQ | 0.02 | 0.471 |  |  |  |  |  | 
hNotch 3 (EGF6-13) (receptor) PAVPCAPSPCRNGGTCRQSGDLTYDCACLPGFEGQNCEVNVDDCPGHRCLNGGTCVDGVNTYNCQCPPEWTGQFCTEDVDECQLQPNACHNGGTCFNTLGGHSCVCVNGWTGESCSQNIDDCATAVCFHGATCHDRVASFYCACPMGKTGLLCHLDDACVSNPCHEDAICDTNPVNGRAICTCPPGFTGGACDQDVDECSIGANPCEHLGRCVNTQGSFLCQCGRGYTGPRCETDVNECLSGPCRNQATCLDRIGQFTCICMAGFTGTYCEVDIDECQSSPCVNGGVCKDRVNGFSCTCPSGFSGSTCQ | 0.0273 | 1.65 |  |  |  |  |  | 

Second part, the binder after the results:

Kd (DLL4.v3) [µM] | Kd (hDLL4 site2) [µM] | Kd (Notch 3 EGF domains 5-12 [1]) [µM] | Kd (Notch2 EGF domains 6-13 [2]) [µM] | Kd (Notch1 EGF domains 6-13 [3]) [µM] | Kd (Notch 3 EGF domains 5-12 [4]) [µM] | Kd (Notch2 EGF domains 6-13 [5]) [µM] | Kd (Notch1 EGF domains 6-13 [6]) [µM] | Binder
0.0314 | 3.25 |  |  |  |  |  |  | hNotch2 (EGF6-13) (receptor) LYVPCAPSPCVNGGTCRQTGDFTFECNCLPGFEGSTCERNIDDCPNHRCQNGGVCVDGVNTYNCRCPPQWTGQFCTEDVDECLLQPNACQNGGTCANRNGGYGCVCVNGWSGDDCSENIDDCAFASCTPGSTCIDRVASFSCMCPEGKAGLLCHLDDACISNPCHKGALCDTNPLNGQYICTCPQGYKGADCTEDVDECAMANSNPCEHAGKCVNTDGAFHCECLKGYAGPRCEMDINECHSDPCQNDATCLDKIGGFTCLCMPGFKGVHCELEINECQSNPCVNNGQCVDKVNRFQCLCPPGFTGPVCQ
 |  | 22.2 | 35.7 | 17.9 | 10.4 | 4.99 | 4.04 | wildtype (WT) human DLL4 (ligand) SGVFQLQLQEFINERGVLASGRPCEPGCRTFFRVCLKHFQAVVSPGPCTFGTVSTPVLGTNSFAVRDDSSGGGRNPLQLPFNFTWPGTFSLIIEAWHAPGDDLRPEALPPDALISKIAIQGSLAVGQNWLLDEQTSTLTRLRYSYRVICSDNYYGDNCSRLCKKRNDHFGHYVCQPDGNLSCLPGWTGEYCQQPICLSGCHEQNGYCSKPAECLCRPGWQGRLCNECIPHNGCRHGTCSTPWQCTCDEGWGGLFCDQDLNYCTHHSPCKNGATCSNSGQRSYTCTCRPGYTGVDCE
